Experimental findings from patent US6191256A, “Recombinant factor VIII binding peptides” (Bayer Corporation, priority 1998, dated 2001) are described below.

Test [1] addresses T1, rFVIII (Homo sapiens, UniProt P00451). Briefly: confirmatory binding assay in filtration plate format using 14C-rFVIII. The following applies: Table 4; for Total dpm / beads % total / beads dpm: 14C-rFVIII 30 nM; for 0.5M CaCl2 % total / 2% acetic acid % total / 2% acetic acid dpm / 0.5M CaCl2 dpm: 14C-rFVIII 30 nM in PPF, 5 mg beads; for 0.5M CaCl2 dpm: 5.0 × 10^15 dpm/mole, 5° C.; for beads % total / beads dpm: remaining on beads after washes. The procedure: Confirmatory binding assays were performed in a filtration plate format using individual peptide sequences synthesized directly onto the TOYOPEARL AF amino 650 M resin, at a final substitution density of 0.1 mmole/g resin. A slurry of each individual peptide sequence was prepared using deionized water. A 100 μL volume of beads (corresponding to 5 mg) was loaded into each well of the filtration plate (MULTISCREEN Assay System, Millipore, Bedford, Mass.), in triplicate for each peptide sequence. Beads were washed with 20% ethanol and incubated overnight with equilibration buffer (20 mM imidazole, 10 mM
CaCl2, 0.105 M NaCl, pH 6.9). A 100 μL aliquot of ^14 C-rFVIII diluted in neat PPF to a final concentration of 20-30 nM was loaded into each well and incubated for 1 hour at 5° C. Filtrate (unbound ^14 C-rFVIII) was collected into a microtiter plate and transferred to liquid scintillation vials for dpm counting. Beads were washed sequentially with: 100 μL of equilibration buffer for 15 minutes, 200 μL of 0.5 M CaCl2 (in equilibration buffer), 200 μL of 1.0 M CaCl2 (in equilibration buffer), and 200 uL of 2% by volume glacial acetic acid in water, for 1 hour each at 5° C. Scintillation counting on the unbound ^14 C-rFVIII (plus equilibration buffer wash), salt and acid washes, as well as on the beads was then performed and the overall mass balance calculated.
Beads presenting the appropriate peptide sequence on the surface were placed in the filtration plate wells and incubated sequentially with equilibration buffer, ^14 C-rFVIII in PPF, equilibration buffer, 0.5 M CaCl2 wash, 1.0 M CaCl2 wash and 2% acetic acid wash. After each incubation, filtrate was collected in microtiter plates, and dpm counted on each
In Table 3, the ^14 C-rFVIII was loaded at 20 nM (in PPF) and the radiolabeling yield was at 3.0×10^15 dpm/mole. In Table 4, the ^14 C-rFVIII was loaded at 30 nM (in PPF) and the radiolabeling yield was at 5.0×10^15 dpm/mole.

The target in test [2] is T1, rFVIII. Briefly: column format binding assay, rFVIII mass per fraction by sandwich capture ELISA for the light chain. The following applies: for 0.5M CaCl2 ng / 0.5M CaCl2 % total / 2% acetic acid % total / 2% acetic acid ng / Flow through % total / Total ng / Flow through ng: Table 6; for Flow through ng: 10,000 ng rFVIII in 1:10 PPF injected, 5° C.; for ELISA results % total: Table 9, 0.5M CaCl2 fraction. The procedure: (§1) Immunoassay on rFVIII using a sandwich capture ELISA for the light chain and activity assay using a chromogenic substrate (COATEST Factor VIII kit from diaPharma, Franklin, Ohio) were performed on a BIOMEK® automated liquid handling system from Beckman Instruments (Brea, Calif.). The monoclonal antibody for rFVIII light chain (known as C7F7), the ELISA assay standard (lot A70K019), and the control for the activity assay (lot A70A001 @ 140 IU/mL) were from the Bayer Corporation (Berkeley, Calif.). The standard for the activity assay was at 11.2 IU/mL (Bayer, Clayton, N.C.), calibrated against the MEGA 1 standard, which is a working standard used by American manufacturers for measuring factor VIII activity (21).
(§2) Additional confirmatory binding assay and performance of the discovered binding peptides in terms of total rFVIII and activity recovery was performed in a column chromatographic format on a microbore HPLC. The resins were packed into 0.4×5 cm columns (Thomson, Springfield, Va.) and tested on the MICHROM HPLC system (Michrom BioResources, Auburn, Calif.). The elution program for the trials utilized the following method. The column was pre-equilibrated with equilibration buffer (as above). A 1 mL aliquot of 1:10 PPF followed by 1 mL of rFVIII (10,000 ng) in 1:10 PPF were injected and allowed sufficient time to flow through the column using equilibration buffer. The column was then washed with step elutions of 0.5 M and 1.0 M CaCl2 in equilibration buffer. The column was exposed to equilibration buffer. Remaining protein was eluted with 2% by volume glacial acetic acid in water. Columns were kept at 5° C. during the chromatographic runs. For each 1 mL injection (equilibration buffer, 1:10 PPF and 10,000 ng rFVIII in 1:10 PPF), the chromatographic cycle was run for 45 minutes (injection, flow through, 0.5 M CaCl2, 1.0 M CaCl2, equilibration buffer, 2% acetic acid, equilibration buffer).
(§3) A Gilson FC204 fraction collector at the HPLC outlet collected individual eluates for further analysis. Each collection tube had 100 μL hSA added to it to stabilize the rFVIII. Fractions collected from the 2% acetic acid eluates were neutralized with 2 M Tris, pH 10.5 to bring the pH to neutrality. The fractions were analyzed for total protein by the integration of the absorbance at 280 nm, for rFVIII by immunoassay (sandwich capture ELISA), and for rFVIII activity by a chromogenic substrate assay.
Tables 5 and 6 present the results from the additional confirmatory binding assays using the column format. The chromatography method was run by injecting the samples at a flow rate of 865 μL/min (413 cm/hr). In order to provide a 10 minute residence time of sample in the column the flow was decreased to 17 μL/min (10 cm/hr) upon injection.
Following the incubation, the flow was set at 865 μL/min (413 cm/hr) for the step clutions of 0.5 M CaCl2, 1.0 M CaCl2, and 2% acetic acid. Results are expressed in terms of the total mass of rFVIII in each fraction, as determined by the sandwich capture ELISA assay for the rFVIII light chain. […] A control using a non-binding peptide sequence (IGF) is also shown for comparison--in this case, 95% of the rFVIII loaded to the column was collected in the flow through fraction. Additional controls with no

Test [3] addresses T1, rFVIII. Briefly: rFVIII activity recovery from peptide columns by chromogenic substrate assay (COATEST). The test is classed as biochemical. As to conditions: for 0.5M CaCl2 IU / 2% acetic acid % total / 2% acetic acid IU / Flow through % total / Total IU / 0.5M CaCl2 % total / Flow through IU: Table 8; for 0.5M CaCl2 % total: activity recovery; for Flow through IU: rFVIII activity in fraction; for Activity results % total: Table 9, 0.5M CaCl2 fraction. The procedure:
as §1, §2, §3
Tables 7 and 8 list the sequences for which activity recovery was determined by a chromogenic substrate assay (COASTEST kit, diaPharma, Franklin, Ohio). Chromatographc conditions are the same as described above for the results from Tables 5 and 6. It can be

T1 sequence (P00451 20-2351): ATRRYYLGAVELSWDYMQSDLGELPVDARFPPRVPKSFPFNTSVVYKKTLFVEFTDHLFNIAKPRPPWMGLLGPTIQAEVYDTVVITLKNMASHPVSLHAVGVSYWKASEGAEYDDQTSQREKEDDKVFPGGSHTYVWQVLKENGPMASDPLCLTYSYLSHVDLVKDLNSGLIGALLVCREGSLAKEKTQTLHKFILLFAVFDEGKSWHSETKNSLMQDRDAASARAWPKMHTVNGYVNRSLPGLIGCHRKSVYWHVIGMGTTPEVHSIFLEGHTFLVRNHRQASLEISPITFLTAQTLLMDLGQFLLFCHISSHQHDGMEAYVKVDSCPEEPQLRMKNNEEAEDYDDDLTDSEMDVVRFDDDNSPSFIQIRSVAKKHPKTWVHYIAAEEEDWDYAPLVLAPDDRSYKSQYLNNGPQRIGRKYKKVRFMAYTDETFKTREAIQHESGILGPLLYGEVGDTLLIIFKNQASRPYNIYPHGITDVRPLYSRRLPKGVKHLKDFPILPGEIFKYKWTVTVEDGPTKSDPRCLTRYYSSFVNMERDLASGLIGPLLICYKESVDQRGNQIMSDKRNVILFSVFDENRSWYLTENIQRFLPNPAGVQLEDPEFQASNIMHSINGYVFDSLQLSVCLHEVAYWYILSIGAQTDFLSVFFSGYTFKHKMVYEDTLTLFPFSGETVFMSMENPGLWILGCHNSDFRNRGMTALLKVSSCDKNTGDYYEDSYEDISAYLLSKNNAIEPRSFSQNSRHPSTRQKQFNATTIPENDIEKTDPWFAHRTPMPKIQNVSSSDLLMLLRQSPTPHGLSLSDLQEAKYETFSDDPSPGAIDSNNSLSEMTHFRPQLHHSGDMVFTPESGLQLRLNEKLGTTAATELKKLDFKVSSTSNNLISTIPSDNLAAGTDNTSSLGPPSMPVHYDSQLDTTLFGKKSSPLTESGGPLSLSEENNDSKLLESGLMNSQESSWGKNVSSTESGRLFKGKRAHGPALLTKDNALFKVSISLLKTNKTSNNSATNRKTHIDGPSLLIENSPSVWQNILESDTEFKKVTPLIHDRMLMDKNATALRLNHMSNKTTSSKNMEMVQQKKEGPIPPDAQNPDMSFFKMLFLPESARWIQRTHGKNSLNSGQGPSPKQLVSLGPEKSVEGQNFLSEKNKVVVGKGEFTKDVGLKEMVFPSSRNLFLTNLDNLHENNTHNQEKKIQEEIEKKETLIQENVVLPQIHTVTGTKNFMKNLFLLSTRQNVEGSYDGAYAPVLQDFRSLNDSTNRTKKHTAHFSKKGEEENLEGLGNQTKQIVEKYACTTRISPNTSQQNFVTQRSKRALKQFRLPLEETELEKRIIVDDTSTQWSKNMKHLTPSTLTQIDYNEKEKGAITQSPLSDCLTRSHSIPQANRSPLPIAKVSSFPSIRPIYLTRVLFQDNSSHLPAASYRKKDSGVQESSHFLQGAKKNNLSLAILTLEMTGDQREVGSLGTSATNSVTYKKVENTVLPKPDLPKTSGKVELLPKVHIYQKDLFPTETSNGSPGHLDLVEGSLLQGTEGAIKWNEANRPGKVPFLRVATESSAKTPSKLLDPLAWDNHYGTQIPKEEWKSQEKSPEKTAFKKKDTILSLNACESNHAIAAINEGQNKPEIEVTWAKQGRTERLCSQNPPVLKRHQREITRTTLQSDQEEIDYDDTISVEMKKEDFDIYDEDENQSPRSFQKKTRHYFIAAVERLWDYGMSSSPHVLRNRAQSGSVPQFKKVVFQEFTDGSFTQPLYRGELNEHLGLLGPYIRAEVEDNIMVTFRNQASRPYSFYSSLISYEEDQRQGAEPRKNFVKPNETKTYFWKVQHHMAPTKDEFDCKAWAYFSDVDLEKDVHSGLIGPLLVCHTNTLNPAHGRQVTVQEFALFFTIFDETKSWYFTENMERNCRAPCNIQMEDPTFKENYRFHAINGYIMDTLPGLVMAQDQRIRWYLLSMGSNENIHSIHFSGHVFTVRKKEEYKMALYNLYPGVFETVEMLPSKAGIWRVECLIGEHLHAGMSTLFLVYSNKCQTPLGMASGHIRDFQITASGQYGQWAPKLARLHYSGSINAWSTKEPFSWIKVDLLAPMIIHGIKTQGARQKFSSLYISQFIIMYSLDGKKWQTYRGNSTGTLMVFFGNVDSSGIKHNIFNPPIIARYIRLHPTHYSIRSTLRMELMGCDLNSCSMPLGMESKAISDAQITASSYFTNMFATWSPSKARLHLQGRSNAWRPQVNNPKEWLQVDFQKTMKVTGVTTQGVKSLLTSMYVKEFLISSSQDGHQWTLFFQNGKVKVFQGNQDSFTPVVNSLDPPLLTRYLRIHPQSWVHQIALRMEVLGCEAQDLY
T1 sequence (P00451 1668-2351 limits assumed): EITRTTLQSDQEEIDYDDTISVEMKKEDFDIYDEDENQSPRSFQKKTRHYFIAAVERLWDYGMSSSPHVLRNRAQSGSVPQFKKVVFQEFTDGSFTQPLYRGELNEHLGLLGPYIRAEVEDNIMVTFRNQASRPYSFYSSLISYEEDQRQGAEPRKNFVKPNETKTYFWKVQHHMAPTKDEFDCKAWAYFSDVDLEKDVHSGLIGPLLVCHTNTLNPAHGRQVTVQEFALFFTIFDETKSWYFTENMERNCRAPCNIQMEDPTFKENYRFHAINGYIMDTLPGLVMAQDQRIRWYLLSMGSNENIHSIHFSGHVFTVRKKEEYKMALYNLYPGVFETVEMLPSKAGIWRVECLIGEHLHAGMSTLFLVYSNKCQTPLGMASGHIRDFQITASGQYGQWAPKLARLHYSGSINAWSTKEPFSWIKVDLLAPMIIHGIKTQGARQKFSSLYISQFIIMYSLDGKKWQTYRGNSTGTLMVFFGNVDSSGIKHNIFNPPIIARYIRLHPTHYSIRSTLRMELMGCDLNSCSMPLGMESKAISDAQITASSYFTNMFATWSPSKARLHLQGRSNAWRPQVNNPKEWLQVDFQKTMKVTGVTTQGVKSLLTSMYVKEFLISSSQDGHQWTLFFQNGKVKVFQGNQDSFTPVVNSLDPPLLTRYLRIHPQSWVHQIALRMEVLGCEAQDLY

Turning to 10 (AFVRSL) [compound 10], in test [1], the Total dpm turned out to be 3764 dpm, the “0.5M CaCl2 % total” value is 93%, the “2% acetic acid % total” value stood at 5% and the “2% acetic acid dpm” value worked out at 188 dpm. In test [1], the “0.5M CaCl2 dpm” value is on record as 3491 dpm, the beads % total came to 2% and the beads dpm amounted to 85 dpm. In test [2], the “0.5M CaCl2 ng” value was found to be 11023 ng, the “0.5M CaCl2 % total” value is 98%, the “2% acetic acid % total” value is 1% and the “2% acetic acid ng” value was 135 ng. Further, in test [2], the “Flow through % total” value stood at 0%, the Total ng came out at 11272 ng, the Flow through ng is reported as 0 ng and the “ELISA results % total” value worked out at 98%. In test [3], the “0.5M CaCl2 IU” value is on record as 53.1 IU, the “2% acetic acid % total” value is on record as 0%, the “2% acetic acid IU” value stood at 0.1 IU and the “Flow through % total” value turned out to be 0%. Besides, in test [3], the “Total IU” value was 54.3 IU, the “0.5M CaCl2 % total” value is recorded as 98%, the “Flow through IU” value is given as 0.0 IU and the “Activity results % total” value was 98%.
On to 11 (NAIFQW) [compound 11], for which, in test [1], the Total dpm stood at 2208 dpm, the “0.5M CaCl2 % total” value worked out at 48%, the “2% acetic acid % total” value was found to be 23% and the “2% acetic acid dpm” value worked out at 518 dpm. In test [1], the “0.5M CaCl2 dpm” value is on record as 1049 dpm, the beads % total was determined as 29% and the beads dpm turned out to be 641 dpm. In test [2], the “0.5M CaCl2 ng” value is 7481 ng, the “0.5M CaCl2 % total” value is given as 78%, the “2% acetic acid % total” value is recorded as 11% and the “2% acetic acid ng” value is 1069 ng. Besides, in test [2], the “Flow through % total” value was found to be 7%, the Total ng was found to be 9641 ng, the Flow through ng is reported as 639 ng and the “ELISA results % total” value came out at 78%. Further, in test [3], the “0.5M CaCl2 IU” value came out at 54.4 IU, the “2% acetic acid % total” value stood at 0%, the “2% acetic acid IU” value was found to be 0.0 IU and the “Flow through % total” value was 4%. Besides, in test [3], the “Total IU” value was 60.4 IU, the “0.5M CaCl2 % total” value turned out to be 90%, the “Flow through IU” value was 2.5 IU and the “Activity results % total” value was found to be 90%.
As to 12 (QRLIQF) [compound 12], in test [1], the Total dpm came out at 3557 dpm, the “0.5M CaCl2 % total” value is given as 90%, the “2% acetic acid % total” value is 8% and the “2% acetic acid dpm” value was 271 dpm. For the same substance, in test [1], the “0.5M CaCl2 dpm” value amounted to 3191 dpm, the beads % total was found to be 3% and the beads dpm came to 95 dpm. Also, in test [2], the “0.5M CaCl2 ng” value was 9223 ng, the “0.5M CaCl2 % total” value was 96%, the “2% acetic acid % total” value was found to be 2% and the “2% acetic acid ng” value is 188 ng. Further, in test [2], the “Flow through % total” value was 0%, the Total ng turned out to be 9579 ng, the Flow through ng is recorded as 0 ng and the “ELISA results % total” value was found to be 96%. Moreover, in test [3], the “0.5M CaCl2 IU” value is on record as 45.1 IU, the “2% acetic acid % total” value was 0%, the “2% acetic acid IU” value was 0.08 IU and the “Flow through % total” value amounted to 0%. In test [3], the “Total IU” value came out at 46.6 IU, the “0.5M CaCl2 % total” value worked out at 97%, the “Flow through IU” value came to 0.0 IU and the “Activity results % total” value came out at 97%.
As to 13 (KAQETW) [compound 13], in test [1], the Total dpm was 4096 dpm, the “0.5M CaCl2 % total” value came to 95%, the “2% acetic acid % total” value amounted to 3% and the “2% acetic acid dpm” value is reported as 135 dpm. Moreover, in test [1], the “0.5M CaCl2 dpm” value worked out at 3884 dpm, the beads % total turned out to be 2% and the beads dpm is given as 77 dpm. Further, in test [2], the “0.5M CaCl2 ng” value worked out at 8018 ng, the “0.5M CaCl2 % total” value stood at 90%, the “2% acetic acid % total” value was 1% and the “2% acetic acid ng” value is on record as 87 ng. Moreover, in test [2], the “Flow through % total” value turned out to be 7%, the Total ng worked out at 8863 ng, the Flow through ng worked out at 641 ng and the “ELISA results % total” value amounted to 90%. For the same substance, in test [3], the “0.5M CaCl2 IU” value was 48.3 IU, the “2% acetic acid % total” value is reported as 0%, the “2% acetic acid IU” value was found to be 0.09 IU and the “Flow through % total” value is recorded as 2%. In test [3], the “Total IU” value was 50.3 IU, the “0.5M CaCl2 % total” value was found to be 96%, the “Flow through IU” value is 0.8 IU and the “Activity results % total” value is given as 96%.
As to 14 (EPRVIG) [compound 14], in test [1], the Total dpm came to 2184 dpm, the “0.5M CaCl2 % total” value came out at 91%, the “2% acetic acid % total” value was determined as 6% and the “2% acetic acid dpm” value is 130 dpm. In addition, in test [1], the “0.5M CaCl2 dpm” value is 1994 dpm, the beads % total is reported as 3% and the beads dpm is given as 60 dpm. For the same substance, in test [2], the “0.5M CaCl2 ng” value is 2850 ng, the “0.5M CaCl2 % total” value is recorded as 32%, the “2% acetic acid % total” value is listed as 1% and the “2% acetic acid ng” value was 75 ng. Besides, in test [2], the “Flow through % total” value was found to be 66%, the Total ng worked out at 8851 ng, the Flow through ng is on record as 5828 ng and the “ELISA results % total” value turned out to be 32%. Moreover, in test [3], the “0.5M CaCl2 IU” value came to 14.7 IU, the “2% acetic acid % total” value was determined as 0%, the “2% acetic acid IU” value was 0.00 IU and the “Flow through % total” value worked out at 73%. In test [3], the “Total IU” value came out at 58.6 IU, the “0.5M CaCl2 % total” value was determined as 25%, the “Flow through IU” value is listed as 42.9 IU and the “Activity results % total” value was determined as 25%.
